Source: patent US20100204105A1 (ZEALAND PHARMA A S, published 2010)

Assays:
[1] = molecular target: human glucagon-like peptide 1 receptor (GLP-1R) (human, UniProt P43220 24-463); assay: cell-based or functional assay
[2] = molecular target: human glucagon receptor (Glucagon-R) (human, UniProt P47871 26-477); assay: cell-based or functional assay
human glucagon receptor (Glucagon-R), sequence (P47871 26-477): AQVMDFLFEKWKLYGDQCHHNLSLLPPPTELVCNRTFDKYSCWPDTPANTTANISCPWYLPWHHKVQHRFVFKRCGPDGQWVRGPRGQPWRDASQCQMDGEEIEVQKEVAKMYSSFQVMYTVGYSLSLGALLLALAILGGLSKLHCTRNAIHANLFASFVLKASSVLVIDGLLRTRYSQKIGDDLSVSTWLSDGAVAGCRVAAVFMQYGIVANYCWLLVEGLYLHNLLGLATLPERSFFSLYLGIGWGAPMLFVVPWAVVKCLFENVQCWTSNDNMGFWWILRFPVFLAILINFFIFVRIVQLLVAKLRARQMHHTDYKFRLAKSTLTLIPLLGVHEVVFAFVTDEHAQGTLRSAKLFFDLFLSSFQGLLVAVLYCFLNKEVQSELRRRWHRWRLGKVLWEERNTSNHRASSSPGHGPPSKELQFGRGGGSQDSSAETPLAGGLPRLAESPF

EC50, cAMP content in HEK293 cells expressing hGLP-1-R (FlashPlate cAMP kit) [1]: 9.3 µM
EC50, cAMP content in HEK293 cells expressing hGlucagon-R (FlashPlate cAMP kit) [2]: 7.3 µM
EC50, cAMP content in HEK293 cells expressing hGlucagon-R (FlashPlate cAMP kit), re-test [2]: 0.49 nM
Binder: H-HSQGTFTSDYSKYLDRARADDFVAWLKST-NH2 [Compound 3 (H-HSQGTFTSDYSKYLDRARADDFVAWLKST-NH2)]
